The values below come from the supplement of paper PMC7125110.

B1: glmS ribozyme (parent)
chain: AUAAAAGCGCCAGAACUACAGAAAUGUAGUUGACGAGGAGGAGGUUUAUCGAAUUUUCGGCGGAUGCCUCCAAA

± gives the standard error. Fewer inactive variants are shown than the library holds. Some results are limits rather than exact numbers.

Holding throughout (conditions): with glucosamine-6-phosphate
In data set [1] the parent is B1. Nature of the data set: self-cleavage kobs at 640 uM GlcN6P; higher = faster cleavage; RNA array. An outline of the steps: (§1)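 Over ~14 h at 37 °C, tiles were imaged as glucosamine-6-phosphate (40 μM to 10 mM) in HEPES/KCl/Mg(OAc)2 buffer flowed across sequenced MiSeq chips. The chips carried barcoded ribozyme variants transcribed in situ by E. coli RNA polymerase and tracked with a hybridised Cy3 probe. After normalisation to baseline and to non-cleaving reference variants, one- or two-exponential decay fits of per-tile medians gave kobs. kcat and KM followed from weighted Michaelis–Menten fits across concentrations.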

In data set [2] the parent is B1. Nature of the data set: self-cleavage kobs at 2500 uM GlcN6P; higher = faster cleavage; RNA array. In a few lines: as §1
Data set [3] covers variants of B1. Nature of the data set: self-cleavage kobs at 10000 uM GlcN6P; higher = faster cleavage; RNA array. In a few lines: as §1

Take AUAAAAGCGUCAGAACUACAGAAAUGUAGUUGACGAGGAGGAGGUAUAUCGAAUUCUCGGCGGAUGCCUCCAAA [C10U U46A U56C]: in the data set with glucosamine-6-phosphate [1], the “self-cleavage kobs at 640 uM GlcN6P” value was below 1e-05 s⁻¹. The “self-cleavage kobs at 2500 uM GlcN6P” value with glucosamine-6-phosphate [2] was below 1e-05 s⁻¹.
In the case of AUAAAAGCGCUAGAACUACAGAAAUGUAGUUCACGAGGAGGAGGUUCAUAGAAUUUUCGGCGGAUGCCUCCAAA [C11U G32C U47C C50A], the “self-cleavage kobs at 640 uM GlcN6P” value in the data set with glucosamine-6-phosphate [1] was below 1e-05 s⁻¹.
On the same count and under the same terms, the result for AUAAAAGCGCCAGAACUACAGAAAUGUAGUUAACGAGGAGGAGGUUUAUCGAAUUUUCGGCGGAUGCCAGCAAA [G32A U69A C70G] reads 4.23e-05 ± 1.9e-05 s⁻¹.
Consider AUAAAAGCUCCCGAACUACAGAAAUGUAGUUGACGAGGAGGAGGUUUAUCCAAUUUUCGGCGGAUGUCUCCAAA [G9U A12C G51C C67U], for which the “self-cleavage kobs at 640 uM GlcN6P” value with glucosamine-6-phosphate [1] is below 1e-05 s⁻¹. In addition, the “self-cleavage kobs at 2500 uM GlcN6P” value with glucosamine-6-phosphate [2] was below 1e-05 s⁻¹.
For the variant AUAAAAGCGCCAGCACUACAGAAAUGUAGUUGACGUGGAGGGGGUUUAUCGAAUUUUCGGCGGAUGCCUCCAAA [A14C A36U A42G], the “self-cleavage kobs at 640 uM GlcN6P” value with glucosamine-6-phosphate [1] is below 1e-05 s⁻¹. Besides, the “self-cleavage kobs at 2500 uM GlcN6P” value with glucosamine-6-phosphate [2] is below 1e-05 s⁻¹. Besides, the “self-cleavage kobs at 10000 uM GlcN6P” value in the data set with glucosamine-6-phosphate [3] is below 1e-05 s⁻¹.
As to AUAAAAGCGCCAGCAGUACAGAAAUGUAUUUGACGAGGAGGAGGUUUAUCGAAUUUUCGGCGGAUGCCUCCAAA [A14C C16G G29U], the “self-cleavage kobs at 640 uM GlcN6P” value with glucosamine-6-phosphate [1] came out at 0.000294 ± 5.1e-05 s⁻¹. In addition, in the data set with glucosamine-6-phosphate [2], the “self-cleavage kobs at 2500 uM GlcN6P” value amounted to 0.000837 ± 0.00017 s⁻¹.
For AUAAAAGCGCAAGAACUACAGAAAUGUAGUUGACGUGGAGGAGGUUCAUCGAAUUUUCGGCGGAUGCCUCCAAA [C11A A36U U47C] the same measures were below 1e-05 s⁻¹ and below 1e-05 s⁻¹.
In the case of AUAAAAGCGCCAGAACUACAGAAAUGUAGUUGACGAGGACGCGGUUUCUCGUAUUUUCGGCGGAUGCCUCCAAA [G40C A42C A48C A52U], the “self-cleavage kobs at 640 uM GlcN6P” value in the data set with glucosamine-6-phosphate [1] is below 1e-05 s⁻¹. Moreover, the “self-cleavage kobs at 10000 uM GlcN6P” value with glucosamine-6-phosphate [3] was below 1e-05 s⁻¹.
In the case of AUAAAAGCGCUAGAACUACAGAAAUGUAGUUUCCGAGGAGGAGGUUUAUCGAAUUUUCGGCGGAUGCCUCCAAA [C11U G32U A33C], the “self-cleavage kobs at 640 uM GlcN6P” value with glucosamine-6-phosphate [1] is below 1e-05 s⁻¹. Besides, in the data set with glucosamine-6-phosphate [2], the “self-cleavage kobs at 2500 uM GlcN6P” value is below 1e-05 s⁻¹.
As for AUAAAAGCGCCGGAACUACAGAAAUGUAGUUGACGAGGAGGAGGUUUCUCGAAUUUUCGGCGGAUGCGUCCAAA [A12G A48C C68G], in the data set with glucosamine-6-phosphate [1], the “self-cleavage kobs at 640 uM GlcN6P” value was below 1e-05 s⁻¹. The “self-cleavage kobs at 2500 uM GlcN6P” value in the data set with glucosamine-6-phosphate [2] is below 1e-05 s⁻¹.
As to AUAAAAGCGCCAUGACUACAGAAAUGUAGUUGACGAGGAGGCGGUUUAUCGAAUUUUCGGCGGAUGCCUCCAAA [G13U A14G A42C], in the data set with glucosamine-6-phosphate [1], the “self-cleavage kobs at 640 uM GlcN6P” value is below 1e-05 s⁻¹. Moreover, the “self-cleavage kobs at 2500 uM GlcN6P” value with glucosamine-6-phosphate [2] is below 1e-05 s⁻¹.
Regarding AUAAAAGCGCCAGAACUACAGAAAUGUAGUUGACGAGGAGUAGGUUUAUCGAUUUGUCGGCGGAUACCUCCAAA [G41U A53U U56G G66A], the “self-cleavage kobs at 640 uM GlcN6P” value in the data set with glucosamine-6-phosphate [1] was determined as 5.34e-05 ± 1.9e-05 s⁻¹. Further, in the data set with glucosamine-6-phosphate [2], the “self-cleavage kobs at 2500 uM GlcN6P” value worked out at 0.000221 ± 4.9e-05 s⁻¹.
As to AUAAAAGCGCCAGAACUACAGAAAUGUACUCGACUAGGAGGAGGUUUAUCGAAUUUUCGGCGGAUGCCUCCAAA [G29C U31C G35U], the “self-cleavage kobs at 640 uM GlcN6P” value with glucosamine-6-phosphate [1] was below 1e-05 s⁻¹. For the same variant, the “self-cleavage kobs at 2500 uM GlcN6P” value with glucosamine-6-phosphate [2] is below 1e-05 s⁻¹.
Consider AUAAAAGCUCCAGAACUACAGAAAUGUAGUUGACGAGGAGGAGGUUUAUCGAAUUUUCGGCGGAUGCCUGCAAA [G9U C70G], for which the “self-cleavage kobs at 640 uM GlcN6P” value with glucosamine-6-phosphate [1] was below 1e-05 s⁻¹. Also, the “self-cleavage kobs at 2500 uM GlcN6P” value with glucosamine-6-phosphate [2] is below 1e-05 s⁻¹. For the same variant, in the data set with glucosamine-6-phosphate [3], the “self-cleavage kobs at 10000 uM GlcN6P” value is below 1e-05 s⁻¹.
For AUAAAAGGGCCAGAACUACAGAAAUGUAGUUGACGGGGAGGUGGUUUAUCGAAUUUUCGGCGGAUGACUCCAAA [C8G A36G A42U C67A], the “self-cleavage kobs at 640 uM GlcN6P” value in the data set with glucosamine-6-phosphate [1] is below 1e-05 s⁻¹. Further, the “self-cleavage kobs at 2500 uM GlcN6P” value with glucosamine-6-phosphate [2] is below 1e-05 s⁻¹.
For the variant AUAAAAGCGCCAGACCUACAGAAAUGUAGUUGACGAGGAGGAGGUUUAUCGAAUUUUUGGAGGAUGCCUUCAAA [A15C C58U C61A C70U], the “self-cleavage kobs at 640 uM GlcN6P” value with glucosamine-6-phosphate [1] came out at 6.5e-05 ± 2.2e-05 s⁻¹.
On to AUAAAAGCGCCAGAACUACAGAAAUGUAGUUGACGAGGAUGAUGUUUACCGAAUUUUCGGCGGAUGCCUCCAAA [G40U G43U U49C], for which, in the data set with glucosamine-6-phosphate [1], the “self-cleavage kobs at 640 uM GlcN6P” value was below 1e-05 s⁻¹. In the data set with glucosamine-6-phosphate [2], the “self-cleavage kobs at 2500 uM GlcN6P” value was below 1e-05 s⁻¹.
With AUAAAAGCGCCUGAACUACAGAAAUGUAGUUCACGAGGAGGAGGUUGAUCGAAUUUUCGGCGGAUGCCUACAAA [A12U G32C U47G C70A], the “self-cleavage kobs at 640 uM GlcN6P” value in the data set with glucosamine-6-phosphate [1] is 0.0007 ± 0.00018 s⁻¹.
Still for that read-out and setting: the result for AUAAAAGCGCCAGAACUACAGAAAUGUAGUUUAUGGGGAGGAGGUUUAUCAAAUUUUCGGCGGAUGCCUGCAAA [G32U C34U A36G G51A C70G] reads 8.6e-05 ± 3.2e-05 s⁻¹.
With AUAAAAGCGCCAGAUCUACAGAAAUGUAGUACACGAGGAGGAGGUUUAUCGAAUUUUCGGCGGAUGCCUCCAAA [A15U U31A G32C], in the data set with glucosamine-6-phosphate [1], the “self-cleavage kobs at 640 uM GlcN6P” value is 4.96e-05 ± 2e-05 s⁻¹. For the same variant, in the data set with glucosamine-6-phosphate [2], the “self-cleavage kobs at 2500 uM GlcN6P” value is 6.02e-05 ± 2.5e-05 s⁻¹.
